Experimental data published in patent US20150111251A1 (AbbVie / Abbott, published 2015).

What was measured:
[1] = molecular target: T1, Recombinant Human TNF-α/TNFSF1A (human, UniProt P01375 77-233); experiment: cell-based or functional assay
[2] = molecular target: T1, Recombinant Human TNF-α/TNFSF1A; experiment: SPR (BIACORE), antibody captured, TNFα in solution

T1 sequence (P01375 77-233 limits assumed): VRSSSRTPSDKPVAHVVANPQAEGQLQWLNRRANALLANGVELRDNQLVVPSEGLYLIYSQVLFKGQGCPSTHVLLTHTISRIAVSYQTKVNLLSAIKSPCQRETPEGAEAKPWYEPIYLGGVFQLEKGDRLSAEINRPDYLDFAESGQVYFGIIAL

TNFα Neutralization Assay IC50 nM (L929 cells) [1]: > 20 nM
Kd [2]: 2.3 nM
koff [2]: 0.0015 s⁻¹
kon [2]: 660000 M⁻¹ s⁻¹
B1: AB386 (antibody, V domains shown)
VH: EIQLVQSGAEVKKPGASVKVSCKASGYTFTNYGMNWVRQAPGQGLEWMGWINTYTGEPTYADDFKGRVTFTTDTSTSTAYMELSSLRSEDTAVYYCARKFLTTVVVTDYAMDYWGQGTTVTVSS
VL: DIVMTQSPAFLSVTPGEKVTITCRASQDISNYLNWYQQKPDQAPKLLIYYTSRLQSGVPSRFSGSGSGTDYTFTISSLEAEDAATYYCQQGNTLPPTFGQGTKLEIK
notes: Full-length humanized antibody made in HEK 293-6E; also called hMAK199VH.2b/hMAK199VL.2b
